{"source": "the DeepSol protein solubility set"}
{"assay": "soluble on expression in E. coli; label from the status in PepcDB or PDB records"}
{"sequence": "MACRQEPQPQGPPPAAGAVASYDYLVIGGGSGGLASARRAAELGARAAVVESHKLGGTCVNVGCVPKKVMWNTAVHSEFMHDHADYGFPSCEGKFNWRVIKEKRDAYVSRLNAIYQNNLTKSHIEIIRGHAAFTSDPKPTIEVSGKKYTAPHILIATGGMPSTPHESQIPGASLGITSDGFFQLEELPGRSVIVGAGYIAVEMAGILSALGSKTSLMIRHDKVLRSFDSMISTNCTEELENAGVEVLKFSQVKEVKKTLSGLEVSMVTAVPGRLPVMTMIPDVDCLLWAIGRVPNTKDLSLNKLGIQTDDKGHIIVDEFQNTNVKGIYAVGDVCGKALLTPVAIAAGRKLAHRLFEYKEDSKLDYNNIPTVVFSHPPIGTVGLTEDEAIHKYGIENVKTYSTSFTPMYHAVTKRKTKCVMKMVCANKEEKVVGIHMQGLGCDEMLQGFAVAVKMGATKADFDNTVAIHPTSSEELVTLR", "soluble on expression in E. coli": "soluble"}
{"sequence": "MGSDKIHHHHHHMDIKQLKFLIALDQTRHFGQAAALCHITQPTLSMRLRNLEDELDLVLVKRGQRFEGFTEAGERILAWARTLLAAHDGLQAEAASCRGQVVGSLRLGTVPLASFNPMHLLLPLREKYPELHFQLSSLSSEQVIDGLSRNQLDLGICYLDQVNTSFFEVIELGTTTMGLLHDTRHFQFTSDRLRWDELGDIPLGLLSKGMHYRQSLDLSFRSRGLEPNAVLESDSSFQLIQAINTGICCAIMPLDCGLEDLSEHLRIVPVADAAIHSPVGLLLRRSEPRSAIAEQCFAEARGLFQAS", "soluble on expression in E. coli": "not soluble"}
{"sequence": "IKVILITGMPGSGKSEFAKLLKERGAKVIVMSDVVRKRYSIEAKPGERLMDFAKRLREIYGDGVVARLCVEELGTSNHDLVVFDGVRSLAEVEEFKRLLGDSVYIVAVHSPPKIRYKRMIERLRSDDSKEISELIRRDREELKLGIGEVIAMADYIITNDSNYEEFKRRCEEVTDRVLK", "soluble on expression in E. coli": "soluble"}
{"sequence": "MIYAAEEVRARFARRGLSFDPTVEEIVRGILEAVREEGDEALDRFSRDLDGYPVEEVPKRAWREAYEDLDEDLRDALETARERIEAFYREEARGGFLRAEGGGVLAQLVRPLERVGVYVPGGSAPLLSTLLMTVVPAKVAGVREVIVASPPKVHPGVLAAAWVAGADRLFAMGGAQAIAALAYGTGRVPRVDKIVGPGNRYVVAAKRLVYGTVGIDGLAGPTETMIIADGSASPRLLAADLLAQAEHGPDSEPWLLSPDRALLERVEAELSWQLQDLPRAEVARQALEKGGLVLTKDLEEAFALANLYAPEHLSLALSDPLPWLEKVQNAGGVFLGEGSPEALGDYIAGPSHVMPTSGTARFQGGLAVRDFLKVIPVVGLSEGAARELAKKGALLARAEGLEGHARSLDLRR", "soluble on expression in E. coli": "soluble"}
{"sequence": "MGSDKIHHHHHHMNPQLLRVTNRIIERSRETRSAYLARIEQAKTSTVHRSQLACGNLAHGFAACQPEDKASLKSMLRNNIAIITSYNDMLSAHQPYEHYPEIIRKALHEANAVGQVAGGVPAMCDGVTQGQDGMELSLLSREVIAMSAAVGLSHNMFDGALFLGVCDKIVPGLTMAALSFGHLPAVFVPSGPMASGLPNKEKVRIRQLYAEGKVDRMALLESEAASYHAPGTCTFYGTANTNQMVVEFMGMQLPGSSFVHPDSPLRDALTAAAARQVTRMTGNGNEWMPIGKMIDEKVVVNGIVALLATGGSTNHTMHLVAMARAAGIQINWDDFSDLSDVVPLMARLYPNGPADINHFQAAGGVPVLVRELLKAGLLHEDVNTVAGFGLSRYTLEPWLNNGELDWREGAEKSLDSNVIASFEQPFSHHGGTKVLSGNLGRAVMKTSAVPVENQVIEAPAVVFESQHDVMPAFEAGLLDRDCVVVVRHQGPKANGMPELHKLMPPLGVLLDRCFKIALVTDGRLSGASGKVPSAIHVTPEAYDGGLLAKVRDGDIIRVNGQTGELTLLVDEAELAAREPHIPDLSASRVGTGRELFSALREKLSGAEQGATCITF", "soluble on expression in E. coli": "not soluble"}
{"sequence": "MGSDKIHHHHHHMPFKAKDQQGNIVLATDFKSVLEIRKNFPKGSLFCPFCQTLMFPRKRQNTSLHFVHTHPCTTVMEHHPESPEHLQGKLEISKYFQEVYKGMIDAQEAFIEIEHPISEAGKNGRIADVAVVFSTGYRIIGECQLAKIEAADIYQRTQDYYSISADVLWFLGGAADTPENRQAAVDLDVFAGTINFTYST", "soluble on expression in E. coli": "not soluble"}
{"sequence": "MSLNSAMDKILVVNEGGELLRFKAMQQDLLYESLLKNHCYHTAYYLNSFDRLSLQENRARALFLVNKPDANTIFAKYQADRGYGDALELGVVYRTEFEKMLSVSVSGEEYHVTFSSVLSIINGNDVRKIRILSEGTVIRTTPRFPENTSGFFFRTYNQQYEMEGHHHHHH", "soluble on expression in E. coli": "soluble"}
{"sequence": "SNAMKAIIKEDVQASLERYADRPVYIHLETTTGSYSAHLNEKNMTVVAYIRNAKVTYHQAKIKGNGPYRVGLKTEEGWIYAEGLTEYTVDEENRLLMAGHLPGGKLAISLQISEKPFTV", "soluble on expression in E. coli": "soluble"}
{"sequence": "MSLENLARFLSTTLKQLRQQRGWSLSRLAEATGVSKAMLGQIERNESSPTVATLWKIATGLNVPFSTFISPPQSATPSVYDPQQQAMVITSLFPYDPQLCFEHFSIQMASGAISESTPHEKGVIEHVVVIDGQLDLCVDGEWQTLNCGEGVRFAADVTHIYRNGGEQTVHFHSLIHYPRSEGGSHHHHHH", "soluble on expression in E. coli": "soluble"}
{"sequence": "MTQTTQSPALIASQSSWRCVQAHDREGWLALMADDVVIEDPIGKSVTNPDGSGIKGKEAVGAFFDTHIAANRLTVTCEETFPSSSPDEIAHILVLHSEFDGGFTSEVRGVFTYRVNKAGLITNMRGYWNLDMMTFGNQE", "soluble on expression in E. coli": "soluble"}
{"sequence": "MGSDKIHHHHHHVSTAVSTPPTRLQCPICGSERFGDFRSRVNVRCSGCGSFERSRLLWLVLSQLELEATGRPFFHVAPEIGIAKLLHARLGERYRAFDFSPDIYAKAKIPVGRLDLCSDLSGMATGSVGGFCHVHVLEHVRCNAALVLQQINRVLAPGGYHVFGVPFWSRQYREDLSSELTDADRLSRFGHEDHVRSFGDQDFTVMFGGAFEGMEAIPLSRLIEVEAAARCNIPPRALTLNNSHSLFVYRKPIP", "soluble on expression in E. coli": "not soluble"}
{"sequence": "MNKDTVLNVTVMGREFRIHCPGEEREELLLAVSCLNRKMQEIKSAGKIAGTEQIAIAAAISMTHELLSIRSQRGFDMNEFKRRIELLECRVSDALTDQGIYKNS", "soluble on expression in E. coli": "not soluble"}
{"sequence": "MVERLEALFDALAELTGQRNAIDAKIVQIVAEIDRDGLWGATGARSISALVAWKTGASERNAKAIAAVAHRAEEFPRCVQGLGAGRLSLDQVGVIAEGAADGSDEHYAALASVATVSQLRKAISLEPKPEPEPKPDPRRSIRTNPGDGYTTYHITLPRLEAAKFDTALEASHEGLIARWEREQDPGDPAVPMPDLVDAFMALVETGWDREATRRPHGQHTAVAVHVDLKSKVAALHLGPLLGDDERRLLTCDATCEVWFELRGRVIGTGRATRTVNRRLRRALEHRDRCCVVPGCSATRGLHAHHLVHWEDGGLTEMANLVLLCPYHHRAHHRGLITITGPADQLTVTDDRGRLLTNQSLARTPLEHHHHHH", "soluble on expression in E. coli": "soluble"}
{"sequence": "MTKERFVISRRRTGFGDCLWSLASAWSYAQRTGRTLVIDWRGSCYVEQPFSNAFPAFFEPVEDIAGVPVICDDRVNQLSFPGPFFPRWWNRPSIDCINRPDEQIFRERDELTELFQAREDSEANTIVCDACLMWRCSEEAERLIFRNIKLRSEIRARIDALYEEHFSGHSIIGVHVRHGNGEDIMEHAPYWADSELALHQVCMAIRKAKALSYPKPVKVFLCTDSAQVLDQVSGLFPDVFAVPKRFQADRAGPLHSAEMGIEGGASALIDMYLLARCATVIRFPPTSAFTRYARLLVPRIIEFDLSNPGHLTMIDNPYEHFAASHHHHHH", "soluble on expression in E. coli": "soluble"}
{"sequence": "DARFSLGGYAGGMYDVHVKNSWYVQPQLLFTYEEFRSKTRLGTDSFFSKFNLELPILASYNVALNNKWNLHINAGPYLSYAMFGRDKSIDYAYGNGMHSSLGWWHQDFPDHFTYGGRAGVSLESEHFIYTIDGKCSLRKRPFGRSVSLSAGVGYKF", "soluble on expression in E. coli": "not soluble"}
{"sequence": "MATTKLSATKSTSRAINYAEKRAVEKSGLNCDVDYAKSSFKAARELYGKTDGNQGHVIIQSFQPGEVTPEQCNQLGLALAEKLVPNHQVAVYTHADTNHVHNHIVLNSIDLNTGKKFNNNKQALRDVRAFNDEVCRAQGLSVPEKDTARLRYTQTEKAIADPNTTSTAQYSWKDDIREAIDQSTATNMEEFQKHLNQHGITIERVTPKSITYRHLAENKKVRGRKLGEDYNKGGIQHGFERQIQRRQQQKHKSDTNFQPKRSTSNRHESTERDTGVTQSDWDQFAQDTNELERRRQAAESARLVDEKARRDREKRVREKPTSRPIINIDRDHGLEL", "soluble on expression in E. coli": "not soluble"}
{"sequence": "MSLSDELAKLVVEVTSPDGNIKAKLVAGEQLTVAFRPGTYARYDERGLEHQLSRLAMLAWTGYRRGFFEAKGRAEDISAKDAEKEHLNHWDANTRRYNEEMAQIVARGKSSGNVIRAQAKGLAFWKVEIRDGTLASMDEATFCAECVSVLAAVQRDSKNQEILLKDFYFGLNIPKSWRKKNPLRIERGVMD", "soluble on expression in E. coli": "not soluble"}
{"sequence": "GTKASKSGVPVTQTQTAGADTTAEKCKGKGEKDCKSPDCKWEGGTCKD", "soluble on expression in E. coli": "soluble"}
{"sequence": "ISASEDMFEDEDLIPRQNVVITLTHHGYIKRLPISTYRSQKRGGRGIQGMGTNEDDFVQHLFTTNSHHTILFFTNKGKVYRLKGYEIPELGRTAKGIPIINLLQIEQDEYISTIIPIEEFTED", "soluble on expression in E. coli": "soluble"}
{"sequence": "MGSDKIHHHHHHMKDGKLYVAFSGGKDSSLVAILAKMALGEERVELVTVDWSPYTYERSREIVRNFAEKHGLKHTFIPSNRMQEKVWKHGPSCNACTRDVKTVLVKRYAQGHLVASGANASDSWGKTGLKVFDGVYSPLCRVGKEEINEMLKFLGLEVKKIGESAGREGCKLKHLLKMLINPDYHGKAVSTANEILLRVLEEHGFKPELANVKIIGPLSRNIALVNVKPLPPEKVMNEIVEKLSAEETIDGVIVVDGPMKLVVLASPAIYRNEESRKWIKEGRLQPEFAFPIEIEWRESKNNKLRTFQVVDARKE", "soluble on expression in E. coli": "not soluble"}
{"sequence": "MTEDLFGDLQDDTILAHLDNPAEDTSRFPALLAELNDLLRGELSRLGVDPAHSLEIVVAICKHLGGGQVYIPRGQALDSLIRDLRIWNDFNGRNVSELTTRYGVTFNTVYKAIRRMRRLKYRQYQPSLL", "soluble on expression in E. coli": "soluble"}
{"sequence": "MKYTITVMSGKGGVGKSTVAVNLAVSLARKGLKVGLIDADINGPDDPKLLGVSDLKLYADEEGIIPAETRYGVRVVSMGFLIPTEDTPIIWRGSLMHKAIQQFLEDVNWKDTDVVVLDMPPGTGDVALSVAQLIPESNGVVIVVTPQDVALLDAKKAINFAKQLKLPVLGIIENMSGFVCPHCGNVTYIFKNGGGEKSAKEYNLPFLGKIPLIPEIAENGDNGIPAVVINDKIREIFDSITDQILKEAQIENIKQLEHHHHHH", "soluble on expression in E. coli": "not soluble"}
{"sequence": "GGSGERKISRIHLVSEPSITHFLQVSWEKTLESGFVITLTDGHSAWTGTVSESEISQEADDMAMEKGKYVGELRKALLSGAGPADVYTFNFSKESCYFFFEKNLKDVSFRLGSFNLEKVENPAEVIRELICYCLDTTAKNEKSIDDLEEKVAHAKEENLNMHQMLDQTLLELNNM", "soluble on expression in E. coli": "soluble"}
{"sequence": "SGRPLEGQPLRALDLYPEPAFLRSGKDPKSSPASSPSFAVLGPEVRSTGGQAGSRRRPSAPCSQDRAAAEGAPALLGGSPSSGSPGHPPGSAFGVEAGCRALNVSEHARGGFALGLPFGLSGGAYLFLLLDGAGDPKPTPEAPISSADGRAWFPSESSWQLPQLPAGSTSGSEPRARPGLGPRQLPTGPRDGAAGQGPGRGLTARLGREREIDCGPRQAGHGGTATDTGRAGSGARHRPPRDRGTPGLRTH", "soluble on expression in E. coli": "soluble"}
{"sequence": "MRQKTIREISVAWKEYKQPYVKQSTMAAYVLILENHILPNFGESDTLHEQAVQDFVLRKIENGLSVKSVKDILIVLKMVMKFGVKNEWMDYQEWDIKYPSSSTTKELEVLSVANHKKILNHIQNHFSFTGLGIYISLCTGLRIGEVCALKWSDINVSEGTITVNRTIERIYIIDGTKKHTELVINTPKTQNSCREIPMTKELLAMVKPLKKVVNEDFYVLTNDEYPTEPRTYRNYYGKLM", "soluble on expression in E. coli": "not soluble"}
